Substitutions are numbered along the chain they refer to. Each block holds one molecule with its values, some of them ahead of it.
How the values were obtained:
[1] = target: SPHK1 (sphingosine kinase 1) (UniProt Q9NYA1); experiment: GST-SPHK1 pull-down of Flag-purified PKR; conditions: reference: wild-type PKR-Flag; sites T451
[2] = target: SPHK1 (sphingosine kinase 1) (UniProt Q9NYA1); experiment: Co-IP of Flag-PKR with endogenous SPHK1; conditions: reference: wild-type PKR-Flag; sites T451
[3] = target: T1, GST-PKR (human, UniProt P19525 1-551); experiment: pull-down; Flag-tagged SPHK1 (wild type, 225A, 225D) immunoprecipitated with anti-Flag from HEK293T lysates, purified and co-incubated with GST-PKR; conditions: both partners purified
T1 construct: double-stranded RNA-dependent protein kinase R (PKR), human, full-length cDNA; also called PKR (in vitro); source: prokaryotic expression (pGEX-4T1/pET28a vectors)

[4] = target: T2, PKR^451D-Flag (human, UniProt P19525 1-551, T451D); experiment: pull-down; Flag-tagged PKR (wild type, 451A, 451D) purified from HEK293T and co-incubated with GST-SPHK1; conditions: both partners purified
T2 construct: double-stranded RNA-dependent protein kinase R (PKR), human, full-length cDNA, point mutant at Thr451; also called T451D; source: HEK293T, transfected, in lysate; also purified from the lysate for the GST pulldown; not shown: Flag, C-terminal, kept

[5] = target: T3, PKR-Flag (wild type) (human, UniProt P19525 1-551); experiment: as above; conditions: both partners purified
T3 construct: double-stranded RNA-dependent protein kinase R (PKR), human, full-length cDNA; also called wild-type PKR; Flag-PKR; source: HEK293T, transfected, in lysate; also purified from the lysate for the GST pulldown; not shown: Flag, C-terminal, kept

[6] = target: T4, PKR^451A-Flag (human, UniProt P19525 1-551, T451A); experiment: as above; conditions: both partners purified
T4 construct: double-stranded RNA-dependent protein kinase R (PKR), human, full-length cDNA, point mutant at Thr451; also called T451A; source: HEK293T, transfected, in lysate; also purified from the lysate for the GST pulldown; not shown: Flag, C-terminal, kept
T4 sequence (P19525 whole entry T451A): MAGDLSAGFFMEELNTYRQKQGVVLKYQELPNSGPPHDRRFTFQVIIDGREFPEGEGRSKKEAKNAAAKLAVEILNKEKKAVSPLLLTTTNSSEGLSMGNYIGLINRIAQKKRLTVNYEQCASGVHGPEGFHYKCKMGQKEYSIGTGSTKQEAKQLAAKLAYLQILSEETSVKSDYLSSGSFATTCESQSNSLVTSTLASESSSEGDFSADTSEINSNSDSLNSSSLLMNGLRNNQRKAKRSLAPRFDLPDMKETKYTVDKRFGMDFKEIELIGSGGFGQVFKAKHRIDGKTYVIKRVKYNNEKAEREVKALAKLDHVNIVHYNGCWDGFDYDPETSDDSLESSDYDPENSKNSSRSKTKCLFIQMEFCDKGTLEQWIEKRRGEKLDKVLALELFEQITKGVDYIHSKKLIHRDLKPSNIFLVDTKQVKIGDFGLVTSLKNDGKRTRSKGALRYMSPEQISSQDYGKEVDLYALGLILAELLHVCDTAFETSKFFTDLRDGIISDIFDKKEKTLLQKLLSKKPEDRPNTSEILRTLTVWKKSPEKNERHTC

T3 sequence (P19525 whole entry): as the sequence (P19525 whole entry T451A) above, with A451T counted along it
T1 sequence (P19525 whole entry): as the sequence (P19525 whole entry T451A) above, with A451T counted along it
T2 sequence (P19525 whole entry T451D): as the sequence (P19525 whole entry T451A) above, with A451D counted along it

binding against the reference [1]: stronger
binding against the reference [2]: stronger
Molecule: PKR (dsRNA-dependent protein kinase R) (from UniProt P19525) T451A

binding result [3]: binds
B1: SPHK1^225D-Flag (phosphomimetic mutant of SPHK1) (enzyme, human, UniProt Q9NYA1 1-384, looked up)
chain: MDPAGGPRGVLPRPCRVLVLLNPRGGKGKALQLFRSHVQPLLAEAEISFTLMLTERRNHARELVRSEELGRWDALVVMSGDGLMHEVVNGLMERPDWETAIQKPLCSLPAGSGNALAASLNHYAGYEQVTNEDLLTNCTLLLCRRLLSPMNLLSLHTASGLRLFSVLSLAWGFIADVDLESEKYRRLGEMRFTLGTFLRLAALRTYRGRLAYLPVGRVGSKTPADPVVVQQGPVDAHLVPLEEPVPSHWTVVPDEDFVLVLALLHSHLGSEMFAAPMGRCAAGVMHLFYVRAGVSRAMLLRLFLAMEKGRHMEYECPYLVYVPVVAFRLEPKDGKGVFAVDGELMVSEAVQGQVHPNYFWMVSGCVEPPPSWKPQQMPPPEEPL
notes: sphingosine kinase 1 (SPHK1), human, full-length cDNA, point mutant at Ser225; source: HEK293T, transfected, in lysate; also purified from the lysate with anti-Flag for the GST pulldown; not shown: Flag, C-terminal, kept

binding result [4]: binds
binding result [5]: binds
binding result [6]: binds
B2: GST-SPHK1 (enzyme, human, UniProt Q9NYA1 1-384, looked up)
chain: B1 chain with D225S
notes: sphingosine kinase 1 (SPHK1), human, full-length cDNA in pGEX-4T1; pGEX-4T1 normally adds GST at the N-terminus; also called purified SPHK1; source: Rosetta bacterial cells, purified on Glutathione Sepharose beads
